± gives the standard deviation of the averaged measurements.
Assay: total protein half-life in vivo (active degradation + dilution); higher = more stable protein
[1] = E. coli NCM3722 delta-clpP delta-lon delta-hslV, growth: N-lim chemostat, doubling time 6 h
[2] = E. coli NCM3722 delta-clpP, growth: N-lim chemostat, doubling time 6 h
[3] = E. coli NCM3722 delta-hslV, growth: N-lim chemostat, doubling time 6 h
[4] = E. coli NCM3722 delta-lon, growth: N-lim chemostat, doubling time 6 h
[5] = E. coli NCM3722 delta-smpB, growth: N-lim chemostat, doubling time 6 h
[6] = wild type E. coli NCM3722, growth: C-lim chemostat, doubling time 3 h
[7] = wild type E. coli NCM3722, growth: C-lim chemostat, doubling time 6 h
[8] = wild type E. coli NCM3722, growth: C-lim chemostat, doubling time 12 h
[9] = wild type E. coli NCM3722, growth: N-lim chemostat, doubling time 6 h
[10] = wild type E. coli NCM3722, growth: N-lim chemostat, doubling time 12 h
[11] = wild type E. coli NCM3722, growth: P-lim chemostat, doubling time 6 h
[12] = wild type E. coli NCM3722, growth: P-lim chemostat, doubling time 12 h

| Sequence | total protein half-life in vivo [1] | total protein half-life in vivo [2] | total protein half-life in vivo [3] | total protein half-life in vivo [4] | total protein half-life in vivo [5] | total protein half-life in vivo [6] | total protein half-life in vivo [7] | total protein half-life in vivo [8] | total protein half-life in vivo [9] | total protein half-life in vivo [10] | total protein half-life in vivo [11] | total protein half-life in vivo [12] |
| --- | --- | --- | --- | --- | --- | --- | --- | --- | --- | --- | --- | --- |
| MTNNDTTLQLSSVLNRECTRSRVHCQSKKRALEIISELAAKQLSLPPQVVFEAILTREKMGSTGIGNGIAIPHGKLEEDTLRAVGVFVQLETPIAFDAIDNQPVDLLFALLVPADQTKTHLHTLSLVAKRLADKTICRRLRAAQSDEELYQIITDTEGTPDEA | 4.58 ± 0.29 h | 3.48 ± 2.9 h | 5.17 ± 0.097 h | 5.82 h | 3.01 ± 0.57 h | 2.46 ± 0.65 h | 5.18 ± 1.6 h | 9.11 ± 5.2 h | 3.79 h | 5.69 ± 0.31 h | 3.46 ± 1.9 h | 8.38 ± 1.6 h |
| MKKSILALSLLVGLSTAASSYAALPETVRIGTDTTYAPFSSKDAKGDFVGFDIDLGNEMCKRMQVKCTWVASDFDALIPSLKAKKIDAIISSLSITDKRQQEIAFSDKLYAADSRLIAAKGSPIQPTLDSLKGKHVGVLQGSTQEAYANETWRSKGVDVVAYANQDLVYSDLAAGRLDAALQDEVAASEGFLKQPAGKDFAFAGSSVKDKKYFGDGTGVGLRKDDAELTAAFNKALGELRQDGTYDKMAKKYFDFNVYGD | 6.69 ± 0.15 h | – | 6.37 ± 0.68 h | 6.79 ± 0.077 h | 5.31 ± 0.11 h | 3.22 ± 0.3 h | 6.33 ± 0.92 h | 11.58 ± 0.11 h | 5.27 ± 0.47 h | 8.71 ± 0.59 h | 5.98 ± 0.25 h | 11.4 ± 1.6 h |
| MPTQEAKAHHVGEWASLRNTSPEIAEAIFEVAGYDEKMAEKIWEEGSDEVLVKAFAKTDKDSLFWGEQTIERKNV [P0AB14] | 5.53 ± 0.41 h | – | 2.63 h | 3.45 ± 0.75 h | 2.46 ± 0.13 h | 2.55 ± 0.13 h | 4.15 ± 0.58 h | 5.68 ± 1 h | 2.39 ± 0.054 h | 3.85 ± 1.1 h | 3.02 ± 0.39 h | 5.43 ± 0.18 h |
| MNYQMITTDDALASLCEAVRAFPAIALDTEFVRTRTYYPQLGLIQLFDGEHLALIDPLGITDWSPLKAILRDPSITKFLHAGSEDLEVFLNVFGELPQPLIDTQILAAFCGRPMSWGFASMVEEYSGVTLDKSESRTDWLARPLTERQCEYAAADVWYLLPITAKLMVETEASGWLPAALDECRLMQMRRQEVVAPEDAWRDITNAWQLRTRQLACLQLLADWRLRKARERDLAVNFVVREEHLWSVARYMPGSLGELDSLGLSGSEIRFHGKTLLALVEKAQTLPEDALPQPMLNLMDMPGYRKAFKAIKSLITDVSETHKISAELLASRRQINQLLNWHWKLKPQNNLPELISGWRGELMAEALHNLLQEYPQ | 4.11 ± 0.93 h | 4.41 ± 1.4 h | 3.88 ± 0.32 h | 4.79 ± 1.2 h | 3.65 ± 0.37 h | > 4 h | 5.23 ± 0.24 h | 10 ± 0.67 h | 3.834 ± 0.0071 h | 6.31 ± 1.4 h | 5.82 ± 0.58 h | 11.8 ± 1.5 h |
| MSANTEAQGSGRGLEAMKWVVVVALLLVAIVGNYLYRDIMLPLRALAVVILIAAAGGVALLTTKGKATVAFAREARTEVRKVIWPTRQETLHTTLIVAAVTAVMSLILWGLDGILVRLVSFITGLRF [P0AG96] | 4.72 h | 3.93 h | 4.78 ± 0.21 h | 4.6239 ± 0.0021 h | 4.69 ± 0.097 h | 2.81 ± 0.067 h | 5.11 ± 0.16 h | 9.61 h | 4.48 ± 0.26 h | 8.61 ± 1.6 h | 4.43 h | 8.75 ± 1.2 h |
| MKTTAKLSFMMFVEWFIWGAWFVPLWLWLSKSGFSAGEIGWSYACTAIAAILSPILVGSITDRFFSAQKVLAVLMFAGALLMYFAAQQTTFAGFFPLLLAYSLTYMPTIALTNSIAFANVPDVERDFPRIRVMGTIGWIASGLACGFLPQILGYADISPTNIPLLITAGSSALLGVFAFFLPDTPPKSTGKMDIKVMLGLDALILLRDKNFLVFFFCSFLFAMPLAFYYIFANGYLTEVGMKNATGWMTLGQFSEIFFMLALPFFTKRFGIKKVLLLGLVTAAIRYGFFIYGSADEYFTYALLFLGILLHGVSYDFYYVTAYIYVDKKAPVHMRTAAQGLITLCCQGFGSLLGYRLGGVMMEKMFAYQEPVNGLTFNWSGMWTFGAVMIAIIAVLFMIFFRESDNEITAIKVDDRDIALTQGEVK | – | – | – | – | – | – | 4.97 ± 0.24 h | 9.17 h | – | – | – | – |
| MANADLDKQPDSVSSVLKVFGILQALGEEREIGITELSQRVMMSKSTVYRFLQTMKTLGYVAQEGESEKYSLTLKLFELGARALQNVDLIRSADIQMRELSRLTKETIHLGALDEDSIVYIHKIDSMYNLRMYSRIGRRNPLYSTAIGKVLLAWRDRDEVKQILEGVEYKRSTERTITSTEALLPVLDQVREQGYGEDNEEQEEGLRCIAVPVFDRFGVVIAGLSISFPTLRFSEERLQEYVAMLHTAARKISAQMGYHDYPF | 6.07 ± 1.7 h | 6.18 ± 1.6 h | 4.82 ± 0.33 h | 5.09 ± 0.25 h | 5.01 ± 0.17 h | 3.01 ± 0.13 h | 5.91 ± 0.28 h | 10.2 ± 0.83 h | 5.255 ± 0.017 h | 8.11 ± 0.13 h | 5.82 ± 0.61 h | 11.1 ± 0.7 h |
| MTDQAEKKHSAFWGVMVIAGTVIGGGMFALPVDLAGAWFFWGAFILIIAWFSMLHSGLLLLEANLNYPVGSSFNTITKDLIGNTWNIISGITVAFVLYILTYAYISANGAIISETISMNLGYHANPRIVGICTAIFVASVLWLSSLAASRITSLFLGLKIISFVIVFGSFFFQVDYSILRDATSSTAGTSYFPYIFMALPVCLASFGFHGNIPSLIICYGKRKDKLIKSVVFGSLLALVIYLFWLYCTMGNIPRESFKAIISSGGNVDSLVKSFLGTKQHGIIEFCLLVFSNLAVASSFFGVTLGLFDYLADLFKIDNSHGGRFKTVLLTFLPPALLYLIFPNGFIYGIGGAGLCATIWAVIIPAVLAIKARKKFPNQMFTVWGGNLIPAIVILFGITVILCWFGNVFNVLPKFG | – | – | – | – | – | 3.24 ± 0.27 h | 5.07 ± 1.3 h | 11 h | – | – | – | – |
| MYEALLVVFLIVAIGLVGLIMLQQGKGADMGASFGAGASATLFGSSGSGNFMTRMTALLATLFFIISLVLGNINSNKTNKGSEWENLSAPAKTEQTQPAAPAKPTSDIPN [P0AG99] | 3.64 ± 0.31 h | 3.46 ± 0.55 h | 3.996 ± 0.032 h | 4.58 ± 0.069 h | 3.78 ± 0.13 h | 2.33 ± 0.097 h | 4.91 ± 1.3 h | 6.22 ± 0.14 h | 3.81 ± 0.04 h | 4.95 h | 3.41 ± 0.17 h | 6.12 ± 0.75 h |

Reference: the supplement of paper PMC11246515
